# Experiment: yeast display, Sf9 membrane polyspecificity reagent, FACS + sequencing; frameworks hold sequencing errors
# Procedure, shortened: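 Sorting gates, low and high (top ~1%), were placed on anti-HA fluorescence to track expression and on streptavidin fluorescence to track reagent binding. A clone's polyreactivity label is taken from the gate it came out of. The reagent was 10% biotinylated, detergent-solubilized Sf9 membrane, applied for 1 hour at 4 °C to galactose-induced yeast display cells.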
row,Sequence,polyreactivity (PSR sort gate)
1,QVQLVESGGGLVQAGGSLRLSCAASGLTIVGNAMGWYRQAPGKERELVASISSRGGSTYYADSVKGRFTISLDNSKNTVYLQMNSLNPEDTAVYYCAAGNSYGVRLLYQIVTRYYWGQGTQVTVSS,high polyreactivity
2,QVQLVESGGGLVQAGGSLRLSCAASGLTIWRHAMGWYRQAPGKEREFVATISQNGGRTYYADSVKGRFTISRDNAKNTVYLQMNSLKPEDTAVYYCAADDWRWRYDYWGQGTQVTVSS,high polyreactivity
3,QVQLVESGGGLVQAGGSLRLSCAASGLTIWRYAMGWYRQAPGKETEFVASISQNGGRTDYADSVKGRFTISRDNAKNTVYLQMNSLKPEDTAVYYCAARRYYGVYYAFYFWRQGTQVTVSS,high polyreactivity
4,QVQLVESGGGLVQAGGSLRLSCAASGLTLAPYAMGWYRQAPGKERELVAAITFSGGSTYYADSVKGRLSISRDNAKNTVYLQMNSLKPEDTAVYYCARDTWAYKNGYPYYSWGQGTQVTVSS,low polyreactivity
5,QVQLVESGGGLVQAGGSLRLSCAASGLTLAWYAMGWYRQAPGKERELVAAISWSGDSTYYADSVKGRFTISRDNAKNTVYLQMNSLKPEDTAVYYCATRVYGGYGYWGQGTQVTVSS,high polyreactivity
6,QVQLVESGGGLVQAGGSLRLSCAASGLTLDYYAMGWSRQGPGKERELVAVIRGRSGSTYYADSVKGRFTISRDNAKNTDYLQMNSLKPEDTAVYYGARVTTYGDYYWGQGTQVTVSS,high polyreactivity
7,QVQLVESGGGLVQAGGSLRLSCAASGLTLFRYAMGWYRQAPGKERELVAAIDYGGGTYYADSVKGRFTISRDNAKNTVYLQMNSLKPEDTAVYYCAVEPEYKYYEGDYWGQGTQVTVSS,low polyreactivity
8,QVQLVESGGGLVQAGGSLRLSCAASGLTLKYYAMGWYRQAPGKERELVAAITYSGGSTYYADSVKGRFTFSRDNAKNTVYLQMNSLIPEDTAVFYCNAGPSVTSGYDYDYWGQGTQVTVSS,low polyreactivity
9,QVQLVESGGGLVQAGGSLRLSCAASGLTLRCNTMGWYRQAPGKERELVADITASAGSTYYADSVKGRFTISRDNAKNTVYLQMISLKPEDTAVYYCAARVYIAYISMDHWGQGTQVTVSS,low polyreactivity
10,QVQLVESGGGLVQAGGSLRLSCAASGLTLRRYAMGWYRQAPGKERELVASINSGTSTKYADSVKGRFTISRDNAKNTVYLQMNSLKPEDTAVYYCAAAGYFPTAGSRRAYYYWGQGTQVTVSS,high polyreactivity
11,QVQLVESGGGLVQAGGSLRLSCAASGLTLSGYAMGWYRQAPGKERELVAAISSTGGSTYYADSVKGRFTISRDNAKNTVYLQMNSLKPEDTAVYYCAKGFSPTRVRLRYPRYDTYNHWGQGTQVTVSS,high polyreactivity
12,QVQLVESGGGLVQAGGSLRLSCAASGLTLSYNAMGWYRQAPGKERELVAAIRSGGSTNYADSVKGRFTISRDNAKNTVYLQMNSLKPEDTAVYYCAARFRYLPYRYGRYQSGYEYWGLGTQVTVSS,high polyreactivity
13,QVQLVESGGGLVQAGGSLRLSCAASGLTLTHYAMGWYRQAPGKERELVATISRSGGRTYYADSVKGRFTISRDNAKNTVYLQMNSLKPEDTAVYYCNAEYYYGRGWYDYWGQGTQVTVSS,high polyreactivity
14,QVQLVESGGGLVQAGGSLRLSCAASGLTLYKNGMGWYRQAPGKERELVAVISRSGGRTYYADSVKGRFTISRDNAKNTVYVQMNSLKPEDTAVYYCAARQYGPRYTYYYWGQGTQVTVSS,high polyreactivity
15,QVQLVESGGGLVQAGGSLRLSCAASGLTSLSYAIGWYRQAPGKERELVAAITLSGCRTYYADSVKGRFTISRDNAKNTVYLQMNSLIPEDTAVYFCAVAGYWYSYGRKYLTTFEYWGQGTQVTVSS,high polyreactivity
16,QVQLVESGGGLVQAGGSLRLSCAASGLTSNGYDMGWYRQAPGKERELVAGITSGGSPYYADSVKGRFTISRDNAKNTVYLQMNSLKPEDTAVYYCNADVTYYIVWEYDYWGQGTQVTVSS,low polyreactivity
17,QVQLVESGGGLVQAGGSLRLSCAASGLTSNGYHMGWYRQAPGKERELVAGITSGGSTYYADSVKGRFTISRDNAKNTVYLQMNSLKPEDTAVYYCNADVTYYIVWEYDYWGQGTQVTVSS,low polyreactivity
18,QVQLVESGGGLVQAGGSLRLSCAASGLTSWYYAMGWYRQAPGKERELVAAITSGGSTYYADSVKGRFTISRDNAKNTVYLQMNSLKPEDTAVYYCAKKKRSYYYYPYDYWGQGTQVTVSS,high polyreactivity
19,QVQLVESGGGLVQAGGSLRLSCAASGLTYNRYTMGWYRQAPGKERELVAAITSSGSTYYADSVKGRFTISRDNAKYTVYLQMNSLKPEDTAVYYCNTVYYDWFHYDYWGQGTQVTVSS,high polyreactivity
20,QVQLVESGGGLVQAGGSLRLSCAASGLTYSNAMGCYRQAPGKERELVAAISWRGGRTYYADSVKGRFTISRDNAKNTVYLQMNSLKPEDTAVYYCAKYAHGHKWYGYWGQGNQVTVSS,low polyreactivity
21,QVQLVESGGGLVQAGGSLRLSCAASGLYAMGWYRQAPGKERELVADINSSGGSITNYADSVKGRFTISRDNAKNTVYLQMNSLKPEDTAVYYCAAPALGNYFYGYDYWGQGTQVTVSS,low polyreactivity
22,QVQLVESGGGLVQAGGSLRLSCAASGMIFYTYVMGWYRQAPGKEREFVAGISTSGGRTDYADSVKGRFTISRDNAKNTVYLQMNSLKPEDTAVYYCNADYWQWYSYWYDYWGQGTQVTVSS,high polyreactivity

row,Sequence,polyreactivity (PSR sort gate)
1,QVQLVESGGGLVQAGGSLRLSCAASGMTFGLYAMGWYRQAPGKERELVAAISKRGGSTNYADSVKGRFTISRDNAKNTVYLQMNSLKPEDTAGYYCAARYPQRGTGKATYVRSRSGYWGLGTQVTVSS,high polyreactivity
2,QVQLVESGGGLVQAGGSLRLSCAASGNAMGWYRQAPGKERELVAAITYGGTTTYYADTVKGRFTISRDNAKNTVYLQMTSQKPEDTAVYYCAADNVSVATPLRYDYWGQGTQVTVSS,low polyreactivity
3,QVQLVESGGGLVQAGGSLRLSCAASGNAMGWYRQAPGKERELVASINRSGGRTYYADSVKGRFTISRDNAKNTVYLQMISLKPEDTAVYYCGARPHYDSDYWGQGTQVTVSS,low polyreactivity
4,QVQLVESGGGLVQAGGSLRLSCAASGNIFADYVMGWYRQAPGKERELVAAIDKSGGRTYYADSVKGRFTISRDNAKNTVYLQMNSLKPEDTAVYYCSAYDRYRRMDYWGQGTQVTVSS,high polyreactivity
5,QVQLVESGGGLVQAGGSLRLSCAASGNIFAIYAMGWYRPAPGKEREFVAAIDWSVASTYYADSVKGRFTISRDNAKNTVYLKMNSLKPEDTAVYYCAAELYCLKYGYYLSYDYWGQGTQVTVSS,high polyreactivity
6,QVQLVESGGGLVQAGGSLRLSCAASGNIFAIYARGWYRQAPGKEREFVAAIDWSVASTYYADSVKGRFTISRDNEKNTVYLQMNSLTPEDTAVYSSAAELYGLKYGYYLSYDYWGQGTQVTVSS,high polyreactivity
7,QVQLVESGGGLVQAGGSLRLSCAASGNIFAYNAMGWYRQAPGKERELVASIRYSGGSTYYADSVKGRFTISRDNAKNTVYLQMNSLKPEDTAVYYCAKRGYSSYRTYNYWGQGTQVTVSS,high polyreactivity
8,QVQLVESGGGLVQAGGSLRLSCAASGNIFDLYAMGWYRQAPGKERELVAAITRSSSRTYYADSVKGRFTISRDNAKNTVYLQMNSLKPEDTAVYYCAAKYSNGSGFDYWGQGTQVTVSS,high polyreactivity
9,QVQLVESGGGLVQAGGSLRLSCAASGNIFDRYAMGWYRQAPGKERELVAGITWSGGSTYYADSVKGRFTISRDNAKNTVYLQMNSLKPEDTAVYYCGEANYYWGHGTQVTVSS,low polyreactivity
10,QVQLVESGGGLVQAGGSLRLSCAASGNIFDSNAMGWYRQAPGKERELVAAITWSGGSTYYADSVKGRFTISRDNAKNTVYLQMNSLKPEDTAVYYCNRYIRYYAWFGYWGQGTQVTVSS,high polyreactivity
11,QVQLVESGGGLVQAGGSLRLSCAASGNIFDTYVMGWYRPAPGTERELVAAISSAGSTNYADSVKGRFTISRDNAKNTVYLQMNSLKPEDTAVYYCNADYWYYGYDYWGQGTQVTVSS,low polyreactivity
12,QVQLVESGGGLVQAGGSLRLSCAASGNIFESYGMGWYRHAPGKERELVATINTSSGSTYDADSVKGRFTISRDNAKNTVYLQMNSLKPEDTAVYYCAAEWYPYPWGYGYWGQGTQVTVSS,low polyreactivity
13,QVQLVESGGGLVQAGGSLRLSCAASGNIFETYAMGWYRQAPGKERELVAVITRGGSTYYADSVKGRFTISRDNAKNTVYLQMNSLKPEDTAVYYCARDAFDDWYGLTDDKSDYWGQGTQVTVSS,low polyreactivity
14,QVQLVESGGGLVQAGGSLRLSCAASGNIFFGNAMGWYRQAPGKERELVAVISKRGGSTYYADSVKGRFTISRDNAKNTVYLQMNSLKPEDTAVYYCAKVPTSRGNQLQQDGTKYDYWGQGTQVTVSS,high polyreactivity
15,QVQLVESGGGLVQAGGSLRLSCAASGNIFFTNAMGWYRQAPGKDRELVATISFRGTSTYYADSVKGRFTISRDNAKNTVYLQMNSLKPEDTAVYYCTARYSVFHRARVNLLGWGLYYWGQGTQVTVSS,low polyreactivity
16,QVQLVESGGGLVQAGGSLRLSCAASGNIFGAYAMGWYRQAPGKERELVARINSGAITNYADSVKGRFTISRDNAKNTVYLQMNSLKPEDTAVYYCNKDTYYAGSYLDYDYWGQGTQVTVSS,low polyreactivity
17,QVQLVESGGGLVQAGGSLRLSCAASGNIFGHYTRGWYRQAPAKERELVAAISRTGGRTYYADSVKGRFTISRDNAKNTVYLQMNSLKPEDTAVYDCDADKGGTYFNGDSWGQGTQVTVSS,high polyreactivity
18,QVQLVESGGGLVQAGGSLRLSCAASGNIFGLNSMGWYRQAPGIDRELVSAISKSGGSTFYADSVKGRFKISRDNAKNTVYLQMNSLKPEDTAVYYCAARWNGARPNHTYGYWGQGTQVTVSS,high polyreactivity
19,QVQLVESGGGLVQAGGSLRLSCAASGNIFGSYAMGWYRQAPGKERELVAAIRTSGGSTYYADSVKGRFTISRDNAKNTVYLQMNSLKPEDTAVYYCATRSRTTKIVRWPGMYYWGQGTQVTVSS,high polyreactivity
20,QVQLVESGGGLVQAGGSLRLSCAASGNIFGVDAMGWYRQAPGKERELVATITTGGSTYYADSVKGRFTISRDNAKNTVYLQMNSLKPADTAVYYCAADVGGGNYVYYGNDYDDGYWGQGTQVTVSS,low polyreactivity
21,QVQLVESGGGLVQAGGSLRLSCAASGNIFHDNAMGWYREAPGKERELVAAISDSGGSTYYADSVKGRFTISRDNAKNTVYFQMNSLQPEDTAVYYCDSGRTYYAPYQWWYDYWGQGTQVTVSS,high polyreactivity

# From the nanobody polyreactivity screen of Harvey et al. (2022)
